Article PMC10232555

Molecular target: Vim93-302-Eb1 (vimentin residues 93 to 302 followed by the Eb1 capping motif) (UniProt P08670)
Experiment: SEC-MALS; data not shown; HS conditions

Substance: Vim93-302-Eb1 (vimentin residues 93 to 302 followed by the Eb1 capping motif) (from UniProt P08670 93-302) (domain or fragment)
- stoichiometry N: 4
